Numbered stars: 1 amine (or outer) side, 2 acyl side, 3 side chain; on linkers, the order of the positions; unused ones are H or OH. Square brackets hold non-standard residues; d marks the D form. Side chains are listed from the residue outwards. Ends that are not written are not given here. * marks the point of attachment. C20 diacid = O=C(O)CCCCCCCCCCCCCCCCCCC(=O)*; γGlu = O=C(O)[C@H](CCC(=O)[*:2])N[*:1]; AEEA = NCCOCCOCC(=O)O; Aib = CC(C)(N)C(=O)O
These substances were tested against T1, human gastric inhibitory peptide receptor (hGIPR) (Homo sapiens, UniProt P48546) (assay: cAMP pharmacological functional assay in presence of 0.1% casein, hGIPR). Conditions: ratio of hGIPR to hGLP1R cAMP EC50 ratios.
T1 construct: expressed in transfected cells; host or cells: HEK293
T1 sequence (P48546 22-466): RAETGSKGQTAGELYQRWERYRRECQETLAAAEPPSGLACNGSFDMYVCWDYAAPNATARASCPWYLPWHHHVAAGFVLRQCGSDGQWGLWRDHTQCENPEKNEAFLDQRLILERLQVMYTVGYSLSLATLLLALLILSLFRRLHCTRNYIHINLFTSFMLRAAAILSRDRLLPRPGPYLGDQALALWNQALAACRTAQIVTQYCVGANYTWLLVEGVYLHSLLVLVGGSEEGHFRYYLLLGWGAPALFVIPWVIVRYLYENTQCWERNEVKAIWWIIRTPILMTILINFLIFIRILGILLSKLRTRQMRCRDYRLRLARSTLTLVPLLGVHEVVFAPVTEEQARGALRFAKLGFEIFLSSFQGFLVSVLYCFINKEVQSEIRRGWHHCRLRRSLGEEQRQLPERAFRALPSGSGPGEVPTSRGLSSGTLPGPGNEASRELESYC
Type: cell-based
Protocol: Each receptor over-expressing cell line (20 μl) is treated with the test peptide in DMEM (Gibco Cat #31053) supplemented with 0.1% Casein (Sigma Cat #C4765), 250 μM IBMX, 1× GlutaMAX™ (Gibco Cat #35050), and 20 mM HEPES (HyClone Cat #SH30237.01) in a 20 μl assay volume. […] EC50 is the concentration of compound causing half-maximal simulation in a dose response curve. A relative EC50 value is derived by non-linear regression analysis using the percent maximal response vs. the concentration of peptide added, fitted to a four-parameter logistic equation.
Intracellular cAMP levels are determined by extrapolation using a standard curve. Dose response curves of compounds are plotted as the percentage of stimulation normalized to minimum (buffer only) and maximum (maximum concentration of each control ligand) values and analyzed using a four parameter non-linear regression fit with a variable slope (Genedata Screener 13). EC50 is the concentration of compound causing half-maximal simulation in a dose response curve.
EC50 is the concentration of compound causing half-maximal simulation in a dose response curve.
With “Y-Aib-EGTFTSDYSI-αMeL-LDSK((2-[2-(2-Amino-ethoxy)-ethoxy]-acetyl)2-(γGlu)-CO—(CH2)18—CO2H)AQ-Aib-AFIEYLIEGGPSSGAPPPS-NH2 (YXEGTFTSDYSIXLDSKAQXAFIEYLIEGGPSSGAPPPS; Aib, αMeL, lipidated Lys, C-terminal amide; (2)..(2) Xaa at position 2 is Aib; (13)..(13) Xaa at position 13 is alpha-methyl-Leu; MOD_RES (17)..(17) Lys at position 17 is chemically modified by conjugation of the epsilon-amino group of the Lys side chain with (2-[2-(2-amino-ethoxy)-ethoxy]-acetyl)2-(gamma-Glu)-CO-(CH2)18- CO2H; (20)..(20) Xaa at position 20 is Aib; MOD_RES (39)..(39) Ser at position 39 is amidated) [Peptide 52]” the “[hGIPR/hGLP1R] EC50 Ratio” value was 2.72. In the case of “Y-Aib-EGT-αMeF-TSDYSI-αMeL-LDKK((2-[2-(2-Amino-ethoxy)-ethoxy]-acetyl)2-(γGlu)2-CO—(CH2)18—CO2H)AQ-Aib-AFIEYLIEGGPSSGAPPPS-NH2 (YXEGTXTSDYSIXLDKKAQXAFIEYLIEGGPSSGAPPPS; Aib, αMeF, αMeL; acylated lysine C20 diacid; amide; (2)..(2) Xaa at position 2 is Aib; (6)..(6) Xaa at position 6 is alpha-methyl-Phe; (13)..(13) Xaa at position 13 is alpha-methyl-Leu; MOD_RES (17)..(17) Lys at position 17 is chemically modified by conjugation of the epsilon-amino group of the Lys side chain with (2-[2-(2-amino-ethoxy)-ethoxy]-acetyl)2-(gamma-Glu)2-CO-(CH2)18- CO2H; (20)..(20) Xaa at position 20 is Aib; MOD_RES (39)..(39) Ser at p) [Peptide 125]”, the “[hGIPR/hGLP1R] EC50 Ratio” value is reported as 2.89. With “Y-Aib-EGT-αMeF(2F)-TSDQSI-αMeL-LDEK((2-[2-(2-Amino-ethoxy)-ethoxy]-acetyl)2-(γGlu)-CO—(CH2)18—CO2H)AQ-Aib-EFI-(D-Glu)-YLIEGGPSSGAPPPS-NH2 (YXEGTXTSDQSIXLDEKAQXEFIXYLIEGGPSSGAPPPS; Aib, αMeF(2F), αMeL, D-Glu; lipidated K; amide; (2)..(2) Xaa at position 2 is Aib; (6)..(6) Xaa at position 6 is alpha-methyl-Phe(2F); (13)..(13) Xaa at position 13 is alpha-methyl-Leu; MOD_RES (17)..(17) Lys at position 17 is chemically modified by conjugation of the epsilon-amino group of the Lys side chain with (2-[2-(2-amino-ethoxy)-ethoxy]-acetyl)2-(gamma-Glu)-CO-(CH2)18- CO2H; (20)..(20) Xaa at position 20 is Aib; (24)..(24) Xaa at positi) [Peptide 187]” the “[hGIPR/hGLP1R] EC50 Ratio” value was 6.57. In the case of “Y-Aib-EGT-αMeF(2F)-TSDYSI-αMeL-LD-Orn-K((2-[2-(2-Amino-ethoxy)-ethoxy]-acetyl)2-(γGlu)-CO—(CH2)16—CO2H)AQ-Aib-EFI-(D-Glu)-YLIEGGPSSGAPPPS-NH2 (YXEGTXTSDYSIXLDXKAQXEFIXYLIEGGPSSGAPPPS; Aib, Orn, αMe residues, lipidated Lys, D-Glu, amide; (2)..(2) Xaa at position 2 is Aib; (6)..(6) Xaa at position 6 is alpha-MeF(2F); (13)..(13) Xaa at position 13 is alpha-MeL; (16)..(16) Xaa at position 16 is Orn; MOD_RES (17)..(17) K at position 17 is chemically modified by conjugation of the epsilon-amino group of the K side chain with (2-[2-(2-amino-ethoxy)-ethoxy]-acetyl)2-(gamma-Glu)-CO-(CH2)16- CO2H; (20)..(20) Xaa at position 20 is Aib; (24)) [Peptide 2]”, the “[hGIPR/hGLP1R] EC50 Ratio” value is reported as 6.63. For “Y-Aib-EGTFTSDYSILLDKIAK((2-[2-(2-Amino-ethoxy)-ethoxy]-acetyl)2-(γGlu)-CO—(CH2)18—CO2H)-Aib-AFIEYLIEGGPSSGAPPPS-NH2 (Y[Aib]EGTFTSDYSILLDKIAK([AEEA-AEEA-γGlu-C20 diacid])[Aib]AFIEYLIEGGPSSGAPPPS-NH2; N-terminus assumed; SMILES CC[C@H](C)[C@H](NC(=O)[C@H](CCCCN)NC(=O)[C@H](CC(=O)O)NC(=O)[C@H](CC(C)C)NC(=O)[C@H](CC(C)C)NC(=O)[C@@H](NC(=O)[C@H](CO)NC(=O)[C@H](Cc1ccc(O)cc1)NC(=O)[C@H](CC(=O)O)NC(=O)[C@H](CO)NC(=O)[C@@H](NC(=O)[C@H](Cc1ccccc1)NC(=O)[C@@H](NC(=O)CNC(=O)[C@H](CCC(=O)O)NC(=O)C(C)(C)NC(=O)[C@@H](N)Cc1ccc(O)cc1)[C@@H](C)O)[C@@H](C)O)[C@@H](C)CC)C(=O)N[C@@H](C)C(=O)N[C@@H](CCCCNC(=O)COCCOCCNC(=O)COCCOCCNC(=O)CC[C@H](NC(=O)CCCCCCCCCCCCCCCCCCC(=O)O)C(=O)O)C(=O)NC(C)(C)C(=O)N[C@@H](C)C(=O)N[C@@H](Cc1ccccc1)C(=O)N[C@H](C(=O)N[C@@H](CCC(=O)O)C(=O)N[C@@H](Cc1ccc(O)cc1)C(=O)N[C@@H](CC(C)C)C(=O)N[C@H](C(=O)N[C@@H](CCC(=O)O)C(=O)NCC(=O)NCC(=O)N1CCC[C@H]1C(=O)N[C@@H](CO)C(=O)N[C@@H](CO)C(=O)NCC(=O)N[C@@H](C)C(=O)N1CCC[C@H]1C(=O)N1CCC[C@H]1C(=O)N1CCC[C@H]1C(=O)N[C@@H](CO)C(N)=O)[C@@H](C)CC)[C@@H](C)CC) [Peptide 31]”, the “[hGIPR/hGLP1R] EC50 Ratio” value was 6.44. “Y-Aib-EGT-αMeF-TSDYSILLDKK((2-[2-(2-Amino-ethoxy)-ethoxy]-acetyl)2-(γGlu)-CO—(CH2)18—CO2H)AQ-Aib-AFIEYLIEGGPSSG-NH2 [Peptide 98]” was tested, and the “[hGIPR/hGLP1R] EC50 Ratio” value was 6.33. “Y-Aib-EGT-αMeF(2F)-TSDYSI-αMeL-LDEK((2-[2-(2-Amino-ethoxy)-ethoxy]-acetyl)2-(γGlu)-CO—(CH2)18—CO2H)AQ-Aib-EFI-Aad-YLIEGGPSSGAPPPS-NH2 (YXEGTXTSDYSIXLDEKAQXEFIXYLIEGGPSSGAPPPS; Aib, Aad, αMeF(2F), αMeL; acylated lysine C20 diacid; amide; (2)..(2) Xaa at position 2 is Aib; (6)..(6) Xaa at position 6 is alpha-methyl-Phe(2F); (13)..(13) Xaa at position 13 is alpha-methyl-Leu; MOD_RES (17)..(17) Lys at position 17 is chemically modified by conjugation of the epsilon-amino group of the Lys side chain with (2-[2-(2-amino-ethoxy)-ethoxy]-acetyl)2-(gamma-Glu)-CO-(CH2)18- CO2H; (20)..(20) Xaa at position 20 is Aib; (24)..(24) Xaa at positi) [Peptide 147]” was tested, and the “[hGIPR/hGLP1R] EC50 Ratio” value was 3.66.
